# Test system: Escherichia coli TOP10
# Assay: shrunken log2 fold change of peptide-encoding DNA abundance (4.5 h post-induction vs induction); higher = less antimicrobial activity (less host growth inhibition)
# Conditions: time post-induction: 4.5 h; library: site-saturation at positions 5, 18, 19, 20
# 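Note: peptides expressed intracellularly from a pBAD plasmid library in pooled LB shake-flask culture, induced with 0.3% L-arabinose, DNA abundance read by NGS, three biological replicates, DESeq2 with apeglm shrinkage.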
row,Sequence,shrunken log2 fold change
1,RRIRMRPPRLPRPRPRPVMWPRP,0.624
2,RRIRARPPRLPRPRPRPGYMPRP,-0.21
3,RRIRQRPPRLPRPRPRPYDMPRP,-0.626
4,RRIRFRPPRLPRPRPRPKSMPRP,0.102
5,RRIRFRPPRLPRPRPRPGYTPRP,-0.427
6,RRIRGRPPRLPRPRPRPWCWPRP,0.682
7,RRIRGRPPRLPRPRPRPTSKPRP,0.69
8,RRIRYRPPRLPRPRPRPTVPPRP,-0.382
9,RRIRFRPPRLPRPRPRPMQSPRP,-0.208
10,RRIRGRPPRLPRPRPRPEIYPRP,0.26
11,RRIRARPPRLPRPRPRPVNNPRP,-0.223
12,RRIRLRPPRLPRPRPRPDTIPRP,-0.21
13,RRIRNRPPRLPRPRPRPKDMPRP,-0.0164
14,RRIRWRPPRLPRPRPRPCYEPRP,-0.136
15,RRIRRRPPRLPRPRPRPACEPRP,0.192
16,RRIRLRPPRLPRPRPRPCAMPRP,0.00887
17,RRIRSRPPRLPRPRPRPTWQPRP,0.0157
18,RRIRFRPPRLPRPRPRPCTAPRP,-0.487
19,RRIRYRPPRLPRPRPRPQESPRP,-0.0191
20,RRIRVRPPRLPRPRPRPPAKPRP,0.603
21,RRIRKRPPRLPRPRPRPAHEPRP,0.816
22,RRIRFRPPRLPRPRPRPERIPRP,-0.352
23,RRIRPRPPRLPRPRPRPMYKPRP,-0.323

row,Sequence,shrunken log2 fold change
1,RRIRVRPPRLPRPRPRPWEEPRP,-0.317
2,RRIRSRPPRLPRPRPRPQFDPRP,-0.00423
3,RRIRARPPRLPRPRPRPVKMPRP,0.163
4,RRIRTRPPRLPRPRPRPIELPRP,-0.0636
5,RRIRERPPRLPRPRPRPPCTPRP,0.0136
6,RRIRFRPPRLPRPRPRPMSIPRP,-0.354
7,RRIRPRPPRLPRPRPRPWNLPRP,-0.365
8,RRIRERPPRLPRPRPRPQCKPRP,-0.276
9,RRIRPRPPRLPRPRPRPWSKPRP,0.00178
10,RRIRIRPPRLPRPRPRPSHEPRP,-0.159
11,RRIRNRPPRLPRPRPRPQVPPRP,0.0184
12,RRIRMRPPRLPRPRPRPRVAPRP,0.699
13,RRIRRRPPRLPRPRPRPDNGPRP,-0.0214
14,RRIRYRPPRLPRPRPRPWSMPRP,-0.221
15,RRIRCRPPRLPRPRPRPEDAPRP,-0.0302
16,RRIRLRPPRLPRPRPRPTIQPRP,-0.0934
17,RRIRVRPPRLPRPRPRPSPLPRP,-0.0757
18,RRIRNRPPRLPRPRPRPCHYPRP,0.00673
19,RRIRCRPPRLPRPRPRPSQVPRP,-0.156
20,RRIRKRPPRLPRPRPRPDFVPRP,0.0472
21,RRIRNRPPRLPRPRPRPRIQPRP,0.0619
22,RRIRTRPPRLPRPRPRPPGTPRP,0.331
23,RRIRQRPPRLPRPRPRPGDHPRP,-0.0718

row,Sequence,shrunken log2 fold change
1,RRIRNRPPRLPRPRPRPTADPRP,0.422
2,RRIRIRPPRLPRPRPRPSCWPRP,-0.322
3,RRIRARPPRLPRPRPRPHKFPRP,-0.0967
4,RRIRMRPPRLPRPRPRPIKVPRP,-0.149
5,RRIRLRPPRLPRPRPRPCTHPRP,-0.0381
6,RRIRKRPPRLPRPRPRPLATPRP,0.527
7,RRIRKRPPRLPRPRPRPGGMPRP,0.633
8,RRIRDRPPRLPRPRPRPNIKPRP,-0.384
9,RRIRHRPPRLPRPRPRPRPWPRP,0.0732
10,RRIRYRPPRLPRPRPRPTGLPRP,-0.101
11,RRIRHRPPRLPRPRPRPHANPRP,-0.124
12,RRIRKRPPRLPRPRPRPDYEPRP,-0.164
13,RRIRLRPPRLPRPRPRPCNEPRP,-0.0438
14,RRIRCRPPRLPRPRPRPWWEPRP,-0.368
15,RRIRRRPPRLPRPRPRPPQNPRP,1.4
16,RRIRHRPPRLPRPRPRPWKAPRP,0.00938
17,RRIRMRPPRLPRPRPRPRIKPRP,0.0377
18,RRIRPRPPRLPRPRPRPPTEPRP,0.306
19,RRIRTRPPRLPRPRPRPYHLPRP,-0.805
20,RRIRERPPRLPRPRPRPWAGPRP,-0.208
21,RRIRTRPPRLPRPRPRPLMTPRP,0.0717
22,RRIRNRPPRLPRPRPRPAIRPRP,-0.0992
23,RRIRERPPRLPRPRPRPYSRPRP,-0.195

row,Sequence,shrunken log2 fold change
1,RRIRDRPPRLPRPRPRPWCLPRP,-0.129
2,RRIRNRPPRLPRPRPRPLRRPRP,2.43
3,RRIRVRPPRLPRPRPRPAEEPRP,0.113
4,RRIRHRPPRLPRPRPRPWIQPRP,-0.0803
5,RRIRLRPPRLPRPRPRPRKPPRP,0.751
6,RRIRRRPPRLPRPRPRPWPQPRP,0.101
7,RRIRPRPPRLPRPRPRPLNPPRP,-0.131
8,RRIRQRPPRLPRPRPRPPIRPRP,-0.0146
9,RRIRQRPPRLPRPRPRPIKYPRP,0.00234
10,RRIRMRPPRLPRPRPRPQDCPRP,0.0414
11,RRIRARPPRLPRPRPRPDIMPRP,0.0619
12,RRIRTRPPRLPRPRPRPWIFPRP,-0.0415
13,RRIRNRPPRLPRPRPRPPRSPRP,0.446
14,RRIRVRPPRLPRPRPRPGNVPRP,-0.393
15,RRIRMRPPRLPRPRPRPRYRPRP,0.307
16,RRIRIRPPRLPRPRPRPEEQPRP,0.0175
17,RRIRHRPPRLPRPRPRPIFDPRP,-0.0378
18,RRIRPRPPRLPRPRPRPYYNPRP,-1.11
19,RRIRKRPPRLPRPRPRPEDSPRP,1.28
20,RRIRGRPPRLPRPRPRPTVWPRP,1.32
21,RRIRGRPPRLPRPRPRPGCTPRP,0.885
22,RRIRQRPPRLPRPRPRPVIEPRP,0.162

# — the supplement of paper PMC9112550, “Optimization of the antimicrobial peptide Bac7 by deep mutational scanning” (BMC Biology, 2022)
